Where two headings read alike, the source gives them in different places.
B1: RAVER1 (protein, UniProt Q8IY67 2-606, looked up)
Ribonucleoprotein PTB-binding …: AADVSVTHRPPLSPKSGAEVEAGDAAERRAPEEELPPLDPEEIRKRLEHTERQFRNRRKILIRGLPGDVTNQEVHDLLSDYELKYCFVDKYKGTAFVTLLNGEQAEAAINAFHQSRLRERELSVQLQPTDALLCVANLPPSLTQQQFEELVRPFGSLERCFLVYSERTGQSKGYGFAEYMKKDSAARAKSDLLGKPLGPRTLYVHWTDAGQLTPALLHSRCLCVDRLPPGFNDVDALCRALSAVHSPTFCQLACGQDGQLKGFAVLEYETAEMAEEAQQQADGLSLGGSHLRVSFCAPGPPGRSMLAALIAAQATALNRGKGLLPEPNILQLLNNLGPSASLQLLLNPLLHGSAGGKQGLLGAPPAMPLLNGPALSTALLQLALQTQGQKKPGILGDSPLGALQPGAQPANPLLGELPAGGGLPPELPPRRGKPPPLLPSVLGPAGGDREALGLGPPAAQLTPPPAPVGLRGSGLRGPLSHFYSGSPTSYFTSGLQAGLKQSHLSKAIGSSPLGSGEGLLGLSPGPNGHSHLLKVRAGGGDMQGWEAPAPQRPLTRPALPSVSRPHWAARNAALPTCCPRPSPAQKAAMWASTPRASAATTRTPT
B2: HRNPA2B1 (protein, UniProt P22626 1-353, looked up)
Heterogeneous nuclear …: MEKTLETVPLERKKREKEQFRKLFIGGLSFETTEESLRNYYEQWGKLTDCVVMRDPASKRSRGFGFVTFSSMAEVDAAMAARPHSIDGRVVEPKRAVAREESGKPGAHVTVKKLFVGGIKEDTEEHHLRDYFEEYGKIDTIEIITDRQSGKKRGFGFVTFDDHDPVDKIVLQKYHTINGHNAEVRKALSRQEMQEVQSSRSGRGGNFGFGDSRGGGGNFGPGPGSNFRGGSDGYGSGRGFGDGYNGYGGGPGGGNFGGSPGYGGGRGGYGGGGPGYGNQGGGYGGGYDNYGGGNYGSGNYNDFGNYNQQPSNYGPMKSGNFGGSRNMGGPYGGGNYGPGGSGGSGGYGGRSRY
B3: DOX3X (protein, UniProt O00571 2-662, looked up)
ATP-dependent RNA helicase …: SHVAVENALGLDQQFAGLDLNSSDNQSGGSTASKGRYIPPHLRNREATKGFYDKDSSGWSSSKDKDAYSSFGSRSDSRGKSSFFSDRGSGSRGRFDDRGRSDYDGIGSRGDRSGFGKFERGGNSRWCDKSDEDDWSKPLPPSERLEQELFSGGNTGINFEKYDDIPVEATGNNCPPHIESFSDVEMGEIIMGNIELTRYTRPTPVQKHAIPIIKEKRDLMACAQTGSGKTAAFLLPILSQIYSDGPGEALRAMKENGRYGRRKQYPISLVLAPTRELAVQIYEEARKFSYRSRVRPCVVYGGADIGQQIRDLERGCHLLVATPGRLVDMMERGKIGLDFCKYLVLDEADRMLDMGFEPQIRRIVEQDTMPPKGVRHTMMFSATFPKEIQMLARDFLDEYIFLAVGRVGSTSENITQKVVWVEESDKRSFLLDLLNATGKDSLTLVFVETKKGADSLEDFLYHEGYACTSIHGDRSQRDREEALHQFRSGKSPILVATAVAARGLDISNVKHVINFDLPSDIEEYVHRIGRTGRVGNLGLATSFFNERNINITKDLLDLLVEAKQEVPSWLENMAYEHHYKGSSRGRSKSSRFSGGFGARDYRQSSGASSSSFSSSRASSSRSGGGGHGSSRGFGGGGYGGFYNSDGYGGNYNSQGVDWWGN
B4: LUC7L2: host protein, UniProt Q9Y383 (protein, UniProt Q9Y383 1-392, looked up)
Putative RNA-binding protein …: MSAQAQMRAMLDQLMGTSRDGDTTRQRIKFSDDRVCKSHLLNCCPHDVLSGTRMDLGECLKVHDLALRADYEIASKEQDFFFELDAMDHLQSFIADCDRRTEVAKKRLAETQEEISAEVAAKAERVHELNEEIGKLLAKVEQLGAEGNVEESQKVMDEVEKARAKKREAEEVYRNSMPASSFQQQKLRVCEVCSAYLGLHDNDRRLADHFGGKLHLGFIEIREKLEELKRVVAEKQEKRNQERLKRREEREREEREKLRRSRSHSKNPKRSRSREHRRHRSRSMSRERKRRTRSKSREKRHRHRSRSSSRSRSRSHQRSRHSSRDRSRERSKRRSSKERFRDQDLASCDRDRSSRDRSPRDRDRKDKKRSYESANGRSEDRRSSEEREAGEI
B5: RRBP1: host protein, UniProt Q9P2E9 (protein, UniProt Q9P2E9 1-1410, looked up)
Ribosome-binding protein 1: MDIYDTQTLGVVVFGGFMVVSAIGIFLVSTFSMKETSYEEALANQRKEMAKTHHQKVEKKKKEKTVEKKGKTKKKEEKPNGKIPDHDPAPNVTVLLREPVRAPAVAVAPTPVQPPIIVAPVATVPAMPQEKLASSPKDKKKKEKKVAKVEPAVSSVVNSIQVLTSKAAILETAPKEVPMVVVPPVGAKGNTPATGTTQGKKAEGTQNQSKKAEGAPNQGRKAEGTPNQGKKTEGTPNQGKKAEGTPNQGKKAEGTPNQGKKAEGAQNQGKKVDTTPNQGKKVEGAPTQGRKAEGAQNQAKKVEGAQNQGKKAEGAQNQGKKGEGAQNQGKKAEGAQNQGKKAEGAQNQGKKAEGAQNQGKKAEGAQNQGKKAEGAQNQGKKAEGAQNQGKKVEGAQNQGKKAEGAQNQGKKAEGAQNQGKKAEGAQNQGKKAEGAQNQGKKAEGAQNQGKKAEGAQNQGKKAEGAQNQGKKVEGAQNQGKKAEGAQNQGKKAEGAQNQGKKAEGAQNQGQKGEGAQNQGKKTEGAQGKKAERSPNQGKKGEGAPIQGKKADSVANQGTKVEGITNQGKKAEGSPSEGKKAEGSPNQGKKADAAANQGKKTESASVQGRNTDVAQSPEAPKQEAPAKKKSGSKKKGEPGPPDADGPLYLPYKTLVSTVGSMVFNEGEAQRLIEILSEKAGIIQDTWHKATQKGDPVAILKRQLEEKEKLLATEQEDAAVAKSKLRELNKEMAAEKAKAAAGEAKVKKQLVAREQEITAVQARMQASYREHVKEVQQLQGKIRTLQEQLENGPNTQLARLQQENSILRDALNQATSQVESKQNAELAKLRQELSKVSKELVEKSEAVRQDEQQRKALEAKAAAFEKQVLQLQASHRESEEALQKRLDEVSRELCHTQSSHASLRADAEKAQEQQQQMAELHSKLQSSEAEVRSKCEELSGLHGQLQEARAENSQLTERIRSIEALLEAGQARDAQDVQASQAEADQQQTRLKELESQVSGLEKEAIELREAVEQQKVKNNDLREKNWKAMEALATAEQACKEKLLSLTQAKEESEKQLCLIEAQTMEALLALLPELSVLAQQNYTEWLQDLKEKGPTLLKHPPAPAEPSSDLASKLREAEETQSTLQAECDQYRSILAETEGMLRDLQKSVEEEEQVWRAKVGAAEEELQKSRVTVKHLEEIVEKLKGELESSDQVREHTSHLEAELEKHMAAASAECQNYAKEVAGLRQLLLESQSQLDAAKSEAQKQSDELALVRQQLSEMKSHVEDGDIAGAPASSPEAPPAEQDPVQLKTQLEWTEAILEDEQTQRQKLTAEFEEAQTSACRLQEELEKLRTAGPLESSETEEASQLKERLEKEKKLTSDLGRAATRLQELLKTTQEQLAREKDTVKKLQEQLEKAEDGSSSKEGTSV
B6: SF3B2 (protein, UniProt Q13435 1-895, looked up)
Splicing factor 3B subunit 2: MATEHPEPPKAELQLPPPPPPGHYGAWAAQELQAKLAEIGAPIQGNREELVERLQSYTRQTGIVLNRPVLRGEDGDKAAPPPMSAQLPGIPMPPPPLGLPPLQPPPPPPPPPPGLGLGFPMAHPPNLGPPPPLRVGEPVALSEEERLKLAQQQAALLMQQEERAKQQGDHSLKEHELLEQQKRAAVLLEQERQQEIAKMGTPVPRPPQDMGQIGVRTPLGPRVAAPVGPVGPTPTVLPMGAPVPRPRGPPPPPGDENREMDDPSVGPKIPQALEKILQLKESRQEEMNSQQEEEEMETDARSSLGQSASETEEDTVSVSKKEKNRKRRNRKKKKKPQRVRGVSSESSGDREKDSTRSRGSDSPAADVEIEYVTEEPEIYEPNFIFFKRIFEAFKLTDDVKKEKEKEPEKLDKLENSAAPKKKGFEEEHKDSDDDSSDDEQEKKPEAPKLSKKKLRRMNRFTVAELKQLVARPDVVEMHDVTAQDPKLLVHLKATRNSVPVPRHWCFKRKYLQGKRGIEKPPFELPDFIKRTGIQEMREALQEKEEQKTMKSKMREKVRPKMGKIDIDYQKLHDAFFKWQTKPKLTIHGDLYYEGKEFETRLKEKKPGDLSDELRISLGMPVGPNAHKVPPPWLIAMQRYGPPPSYPNLKIPGLNSPIPESCSFGYHAGGWGKPPVDETGKPLYGDVFGTNAAEFQTKTEEEEIDRTPWGELEPSDEESSEEEEEEESDEDKPDETGFITPADSGLITPGGFSSVPAGMETPELIELRKKKIEEAMDGSETPQLFTVLPEKRTATVGGAMMGSTHIYDMSTVMSRKGPAPELQGVEVALAPEELELDPMAMTQKYEEHVREQQAQVEKEDFSDMVAEHAAKQKQKKRKAQPQDSRGGSKKYKEFKF
B7: PDIA6: host protein, UniProt Q15084 (protein, UniProt Q15084 20-440, looked up)
Protein disulfide-isomerase A6: LYSSSDDVIELTPSNFNREVIQSDSLWLVEFYAPWCGHCQRLTPEWKKAATALKDVVKVGAVDADKHHSLGGQYGVQGFPTIKIFGSNKNRPEDYQGGRTGEAIVDAALSALRQLVKDRLGGRSGGYSSGKQGRSDSSSKKDVIELTDDSFDKNVLDSEDVWMVEFYAPWCGHCKNLEPEWAAAASEVKEQTKGKVKLAAVDATVNQVLASRYGIRGFPTIKIFQKGESPVDYDGGRTRSDIVSRALDLFSDNAPPPELLEIINEDIAKRTCEEHQLCVVAVLPHILDTGAAGRNSYLEVLLKLADKYKKKMWGWLWTEAGAQSELETALGIGGFGYPAMAAINARKMKFALLKGSFSEQGINEFLRELSFGRGSTAPVGGGAFPTIVEREPWDGRDGELPVEDDIDLSDVELDDLGKDEL

Experiments:
Type in all cases: binding
[1] = system: gRNA of HCoV-OC43; conditions: for target (spectral count, OC43 Probe I RNP capture) / background (spectral count, no-probe control): type n_48_v: 48 hours post-infection; for target (spectral count, OC43 Probe I RNP capture): infected cells, unweighted spectral count; for background (spectral count, no-probe control): no-probe control on infected cells; for target (spectral count) / background (spectral count): type g_36_m, 36 hpi, Probe I; for target (spectral count): HCoV-OC43-infected HCT-8 cells; for background (spectral count): uninfected-probe control
[2] = system: HCoV-OC43 gRNA and sgRNA; conditions: for target (unweighted spectral count, OC43 Probe II) / background (unweighted spectral count, no-probe control): type n_48_v, 48 hpi; for target (unweighted spectral count, OC43 Probe II): OC43 Probe II capture on infected cells; for background (unweighted spectral count, no-probe control): no-probe control on infected cells; for target (unweighted spectral count, OC43 Probe II capture): tested against no-probe control, FDR<10%; for target (spectral count) / background (spectral count): type s_36_m, Probe II; for target (spectral count): HCoV-OC43-infected HCT-8 cells; for background (spectral count): uninfected-probe control
[3] = system: SARS-CoV-2 gRNA and sgRNAs; conditions: for target (unweighted spectral count in RNP capture): Probe II capture, LC-MS/MS LFQ; for background (unweighted spectral count in control): no-probe control pull-down, used as background for Probe II

Row | Molecule | target (spectral count, OC43 Probe I RNP capture) [1] | background (spectral count, no-probe control) [1] | target (unweighted spectral count, OC43 Probe II) [2] | background (unweighted spectral count, no-probe control) [2] | target (unweighted spectral count in RNP capture) [3] | background (unweighted spectral count in control) [3] | target (spectral count) [1] | background (spectral count) [1] | target (unweighted spectral count, OC43 Probe II capture) ([2]; 24 hpi, type n_24_v) | target (unweighted spectral count, OC43 Probe II capture) ([2]; 36 hpi, type n_36_v) | target (spectral count) ([2]; 36 hpi) | background (spectral count) ([2]; 36 hpi)
1 | B1 | 5 | 1 | 5 | 1 | – | – | – | – | – | – | – | –
2 | B2 | – | – | – | – | 88 | 1 | – | – | – | – | – | –
3 | B3 | – | – | – | – | 49 | 1 | – | – | – | – | – | –
4 | B4 | – | – | – | – | – | – | 9 | 1 | 4 | – | – | –
5 | B5 | 17 | 5 | 32 | 5 | – | – | 22 | 1 | 10 | 16 | 16 | 1
6 | B6 | 5 | 1 | 5 | 1 | – | – | – | – | – | – | – | –
7 | B7 | – | – | – | – | – | – | 12 | 1 | 4 | 7 | 7 | 1
